Experimental data published in patent US20220289843A1 (ELPIS BIOPHARMACEUTICALS, published 2022).
Each block holds one molecule with its values, some of them ahead of it.

Columns and labels:
[1] = biological target: endogenous CD19 expressed on cell surface (Daudi cells, Raji cells, DLBCL tissue) (UniProt P15391); assay: FACS on Raji cells, secondary reagent alone (background)
[2] = biological target: T1, full-length human CD19 fused with flag and Myc tags at the C-terminus, expressed on HEK293 or K562 cells (human, UniProt P15391 20-556); assay: FACS on CD19/HEK293 cells, scFv titration, anti-His Alexa 488 detection
T1 construct: whole, on cells; also called CD19/HEK293 cells; CD19-expressing HEK293 cells; not shown: C-terminal flag and Myc tags (pCMV6-Entry vector)
T1 sequence (looked up): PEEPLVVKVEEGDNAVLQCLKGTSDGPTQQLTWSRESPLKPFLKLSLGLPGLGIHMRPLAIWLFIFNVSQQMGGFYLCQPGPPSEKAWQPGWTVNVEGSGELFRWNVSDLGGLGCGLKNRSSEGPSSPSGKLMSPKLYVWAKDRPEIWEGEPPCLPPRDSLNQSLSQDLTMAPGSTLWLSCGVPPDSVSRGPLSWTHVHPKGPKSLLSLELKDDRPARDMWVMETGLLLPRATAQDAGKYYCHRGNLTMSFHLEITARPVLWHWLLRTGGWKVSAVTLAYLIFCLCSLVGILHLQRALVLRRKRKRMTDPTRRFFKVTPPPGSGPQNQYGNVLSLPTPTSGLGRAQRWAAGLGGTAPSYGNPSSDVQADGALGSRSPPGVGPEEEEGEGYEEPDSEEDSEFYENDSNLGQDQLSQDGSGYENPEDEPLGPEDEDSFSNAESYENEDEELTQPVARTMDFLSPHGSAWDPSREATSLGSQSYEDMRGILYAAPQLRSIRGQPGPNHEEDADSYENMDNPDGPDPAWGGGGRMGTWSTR
Method: The diluted samples were incubated with CD19-expressing HEK293 cells (CD19/HEK293 cells) in 96 wells plate on ice for 1 hour. Cells were spun down at 1200 rpm for 5 minutes at 4° C. to remove unbound antibodies. Cells were then washed once with 200 μL of full medium per well. Samples were mixed with an Alexa fluor 488-conjugated anti-His antibody (secondary antibody, 100 μL, 1:1000 diluted) and incubated at 4° C. for 30 minutes in dark. Samples were then spun down at 1200 rpm for 5 minutes at 4° C. and washed twice with 200 uL of 1×PBS per well. The resultant samples were reconstituted in 200 uL of 1×PBS and read on Guava EasyCyte. Analysis was done by counting only Alexa Fluor 488-positive cells and then plotted in Prism 8.1 software.

[3] = biological target: T1, full-length human CD19 fused with flag …; assay: FACS titration on CD19/HEK293 cells, anti-His Alexa Fluor 488, positive cell counts; 20 nM FMC63 IgG present as competitor
Method: Purified anti-CD19 scFv antibodies were titrated from 100 nM with 2-fold serial dilution. […] Cells were spun down at 1200 rpm for 5 minutes at 4° C. Samples were mixed with an Alexa fluor 488-conjugated anti-His antibody (100 uL, 1:1000 diluted) and incubated at 4° C. for 30 minutes in the dark. The samples were spun down at 1200 rpm for 5 minutes at 4° C. and washed twice with 200 μL of 1×PBS per well. The resultant samples were then reconstituted in 200 uL of 1×PBS and read on Guava EasyCyte. Analysis was done by counting only Alexa Fluor 488-positive cells and then plotted in Prism 8.1 software.

human CD3ε/Fc = biological target: T2, human CD3ε/Fc (human, UniProt P07766 23-126, limits assumed); assay: ELISA, human CD3ε/Fc immobilised, BiTE serially diluted
T2 construct: Immobilised on the ELISA plate at 2 ug/mL; not shown: Fc
Method: Further, an ELISA assay was developed to determine the EC50 of anti-CD19/CD3 BiTE antibodies. Briefly, 384 well plate was immobilized with human CD3ε/Fc at final concentration of 2 μg/mL in 1×PBS in total volume of 25 uL per well. The plate was incubated overnight at 4° C. followed by blocking with 80 uL of superblock per well for 1 hour. Anti-CD19/CD3 BiTE proteins were serial diluted, and 25 μL was added to CD3ε immobilized wells and incubated for 1 hour with shaking. The CD3ε binding was detected by adding 25 μL of anti-Flag HRP diluted at 1:5000 in 1×PBST. In between each step, the plate was washed 3 times with 1×PBST in a plate washer. The plate was then developed with 20 μL of TMB substrate for 5 mins and stopped by adding 20 μL of 2N sulfuric acid. The plate was read at OD450 nm Biotek plate reader and then plotted in Prism 8.1 software.

[4] = biological target: T3, endogenous CD19 expressed on cell surface (Daudi cells, Raji cells, DLBCL tissue) (UniProt P15391 20-556, limits assumed); assay: FACS on CD19+ Raji cells, BiTE serially diluted from 200 nM
T3 construct: whole, on cells; also called CD19+ Raji cells; CD19-positive DLBCL tissue
T3 sequence (looked up): T1 sequence (looked up)
Method: (§1) A solution containing 200 nM of purified anti-CD19/CD3 BiTE antibodies were serial diluted in full medium and incubated with Raji cells in 96 wells plate on ice for one hour. Cells were spun down at 1200 rpm for 5 minutes at 4° C. to remove primary antibodies. Cells were then washed once with 200 uL of full medium per well. Samples were detected with premixed anti-His Biotin Streptavidin Alexa fluor 647 by adding 100 uL of diluted secondary antibody and incubated at 4° C. for 30 minutes in the dark. Samples were spun down at 1200 rpm for 5 minutes at 4° C. and washed twice with 200 uL of 1×PBS per well. Reconstituted samples in 200 uL of 1× PBS and read on Attune NxT cytometer. Analysis was done by Attune NxT software plotting the overlay histogram of CD19 or CD3 binding with secondary antibodies.

[5] = biological target: T3, endogenous CD19 expressed on cell …; assay: FACS on Raji cells, anti-His biotin/streptavidin Alexa 647 detection
Method: as §1

[6] = biological target: T4, CD3 on CD3+ Jurkat T cells (Homo sapiens (Human), UniProt P07766 23-207); assay: FACS on CD3+ Jurkat cells, anti-His biotin/streptavidin Alexa Fluor 647, positive cell counts
T4 construct: also called CD3+ Jurkat cells
Method: as §1
A similarly FACS assay was performed to examine the binding activity of the exemplary bispecific anti-CD19/anti-CD3 antibodies to CD3+ Jurkat T cells, following the descriptions above.

[7] = biological target: T3, endogenous CD19 expressed on cell …; assay: FACS on CD19+ Raji cells, BiTE serially diluted from 200 nM; CD19+ Raji cells, FACS
Method: as §1

T4 sequence (P07766 23-207 limits assumed): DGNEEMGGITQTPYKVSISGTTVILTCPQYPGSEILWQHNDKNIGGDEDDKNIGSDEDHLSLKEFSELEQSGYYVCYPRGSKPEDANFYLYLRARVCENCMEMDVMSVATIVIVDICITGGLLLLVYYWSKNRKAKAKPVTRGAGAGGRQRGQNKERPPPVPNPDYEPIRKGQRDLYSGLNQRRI
T2 sequence (P07766 23-126 limits assumed): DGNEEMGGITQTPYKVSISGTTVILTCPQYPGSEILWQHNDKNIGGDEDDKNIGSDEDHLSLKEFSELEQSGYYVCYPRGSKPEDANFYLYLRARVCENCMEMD

% Raji cells stained positive [1]: 1.3%
Molecule: secondary antibody control

EC50 [2]: 0.751 nM | EC50 (read off the curve) [3]: 1.6 to 3 nM
B1: 2018EP187-A12 (scFv, VH-VL orientation) (scFv)
scFv: QVQLQQWGAGLLKPSETLSLTCAVYGGSFSGYYWTWIRQPPGKGLEWIGEINHGGSSNYNPSLKSRVTISVDTSKKQFSLNLNSVTAADTAVYYCARGLGYRSGWYEVENAFDIWGQGTMVTVSSGGGGSGGGGSGGGGSQPVLTQPPSVSVAPGQTARITCGGNKIESRSVHWYQQKPGQAPVLVVYDDGARPSGIPERLSGSNSGDTATLTISRVEPGDEADYYCQVWDGSSVIFGGGTKLTVL
notes: Purified from E. coli periplasmic expression (pET22b); fully human scFv from mRNA display; also called 2018EP187-Al2; not shown: C-terminal flag and 6xHIS tag

EC50 [2]: 7.18 nM
B2: 2018EP142-D09 (scFv, VH-VL orientation) (scFv)
scFv: EVQLVESGAEVKKPGASVKVSCKASGYTFTSYYMHWVRQAPGQGLEWMGIINPSGGSTSYAQKFQGRVTITADESTSTAYMELSSLRSEDTAVYYCAREGGYKDFDYWGQGTLVTVSSGGGGSGGGGSGGGGSDIVMTQSPSSLSASVGDRVTVTCRASQSIDTYLNWYQQKPGKAPKLLIYTASTLQSGVPSRFSGSGSGTDFTLTISSLQPEDFATYYCQQSYSAPRTFGQGTKVEIK
notes: Purified from E. coli periplasmic expression; also called EP142-D9; not shown: C-terminal flag and 6xHIS tag

EC50 (human CD3ε/Fc): 7.58 nM | EC50 [4]: 3.81 nM | % Raji cells stained positive [5]: ~81.1% | EC50 (read off the curve) [6]: ~4 nM
B3: BiTE EP382 (bispecific antibody)
chain: QVQLVQSGGGVVQPGKSLRLSCAASGFPFSSYTMHWVRQPPGEGLEWVALISYDGRNLYYADSVKGRFTISRDNSYNSLYLQLSGLRAEDTALYYCARDINRDHFYGMDLWGPGTTVTVSSGGGGSGGGGSGGGGSSYELTQPPSVSVAPGQTARIPCGGTNIGSKGVHWYQQKPGQAPVLVIYYDHSRPSGIPERFSGSNSGNTAALTISRVEAGDEADYYCQVWEGTSDHPVFGGGTKLTVLGGGGSEVQLVESGGGLVQPGGSLRLSCAASGFTFSTYAMNWVRQAPGKGLEWVGRIRSKYNNYATYYADSVKGRFTISRDDSKNTLYLQMNSLRAEDTAVYYCVRHGNFGDSYVSWFAYWGQGTLVTVSSGGGGSGGGGSGGGGSGGGGSQAVVTQEPSLTVSPGGTVTLTCGSSTGAVTTSNYANWVQQKPGKSPRGLIGGTNKRAPGVPARFSGSLLGGKAALTISGAQPEDEADYYCALWYSNHWVFGGGTKLTVLHHHHHH
notes: also called anti-CD19/anti-CD3 BiTE antibody

EC50 [2]: 1.26 nM
B4: 2018EP188-B10 (scFv, VH-VL orientation) (scFv)
scFv: QVQLVQSGGGVVQPGKSLRLSCAASGFPFSSYTMHWVRQPPGEGLEWVALISYDGRNLYYADSVKGRFTISRDNSYNSLYLQLSGLRAEDTALYYCARDINRDHFYGMDLWGPGTTVTVSSGGGGSGGGGSGGGGSSYELTQPPSVSVAPGQTARIPCGGTNIGSKGVHWYQQKPGQAPVLVIYYDHSRPSGIPERFSGSNSGNTAALTISRVEAGDEADYYCQVWEGTSDHPVFGGGTKLTVL
notes: Purified from E. coli periplasmic expression; not shown: C-terminal flag and 6xHIS tag

EC50 (human CD3ε/Fc): 5.57 nM | % Raji cells stained positive [5]: ~92.3% | EC50 [7]: 0.766 nM | EC50 (read off the curve) [6]: ~0.8 nM
B5: BiTE EP381 (bispecific antibody)
chain: QVQLQQWGAGLLKPSETLSLTCAVYGGSFSGYYWTWIRQPPGKGLEWIGEINHGGSSNYNPSLKSRVTISVDTSKKQFSLNLNSVTAADTAVYYCARGLGYRSGWYEVENAFDIWGQGTMVTVSSGGGGSGGGGSGGGGSQPVLTQPPSVSVAPGQTARITCGGNKIESRSVHWYQQKPGQAPVLVVYDDGARPSGIPERLSGSNSGDTATLTISRVEPGDEADYYCQVWDGSSVIFGGGTKLTVLGGGGSEVQLVESGGGLVQPGGSLRLSCAASGFTFSTYAMNWVRQAPGKGLEWVGRIRSKYNNYATYYADSVKGRFTISRDDSKNTLYLQMNSLRAEDTAVYYCVRHGNFGDSYVSWFAYWGQGTLVTVSSGGGGSGGGGSGGGGSGGGGSQAVVTQEPSLTVSPGGTVTLTCGSSTGAVTTSNYANWVQQKPGKSPRGLIGGTNKRAPGVPARFSGSLLGGKAALTISGAQPEDEADYYCALWYSNHWVFGGGTKLTVLHHHHHH
notes: as for B3

EC50 (human CD3ε/Fc): 3.17 nM | EC50 [4]: 0.846 nM | % Raji cells stained positive [5]: ~80% | EC50 (read off the curve) [6]: ~0.8 nM
B6: BiTE EP383 (bispecific antibody)
chain: EVQLVESGAEVKKPGASVKVSCKASGYTFTSYYMHWVRQAPGQGLEWMGIINPSGGSTSYAQKFQGRVTITADESTSTAYMELSSLRSEDTAVYYCAREGGYKDFDYWGQGTLVTVSSGGGGSGGGGSGGGGSDIVMTQSPSSLSASVGDRVTVTCRASQSIDTYLNWYQQKPGKAPKLLIYTASTLQSGVPSRFSGSGSGTDFTLTISSLQPEDFATYYCQQSYSAPRTFGQGTKVEIKGGGGSEVQLVESGGGLVQPGGSLRLSCAASGFTFSTYAMNWVRQAPGKGLEWVGRIRSKYNNYATYYADSVKGRFTISRDDSKNTLYLQMNSLRAEDTAVYYCVRHGNFGDSYVSWFAYWGQGTLVTVSSGGGGSGGGGSGGGGSGGGGSQAVVTQEPSLTVSPGGTVTLTCGSSTGAVTTSNYANWVQQKPGKSPRGLIGGTNKRAPGVPARFSGSLLGGKAALTISGAQPEDEADYYCALWYSNHWVFGGGTKLTVLHHHHHH
notes: as for B3
